Results on one molecule are retold here after patent US20090298755A1 (NEW ENGLAND MEDICAL CENTER HOSPITALS, published 2009).

One test has as its target T1, µ receptor (rat brain) (rat, UniProt P33535 1-398).
T1 construct: whole, on cells; Native receptor in crude rat brain plasma membrane homogenate, not on intact cells; also called µ opioid receptor; opioid receptor
Description: radioligand competition, [3H]DAMGO on crude rat brain plasma membranes, 4 C, 90 min, filtration.

In another test the target is T2, NK1 receptor (rat brain) (rat, UniProt P14600 1-407).
T2 construct: whole, on cells; Native receptor in crude rat brain plasma membrane homogenate, not on intact cells; also called SP receptor
T2 sequence (P14600 whole entry): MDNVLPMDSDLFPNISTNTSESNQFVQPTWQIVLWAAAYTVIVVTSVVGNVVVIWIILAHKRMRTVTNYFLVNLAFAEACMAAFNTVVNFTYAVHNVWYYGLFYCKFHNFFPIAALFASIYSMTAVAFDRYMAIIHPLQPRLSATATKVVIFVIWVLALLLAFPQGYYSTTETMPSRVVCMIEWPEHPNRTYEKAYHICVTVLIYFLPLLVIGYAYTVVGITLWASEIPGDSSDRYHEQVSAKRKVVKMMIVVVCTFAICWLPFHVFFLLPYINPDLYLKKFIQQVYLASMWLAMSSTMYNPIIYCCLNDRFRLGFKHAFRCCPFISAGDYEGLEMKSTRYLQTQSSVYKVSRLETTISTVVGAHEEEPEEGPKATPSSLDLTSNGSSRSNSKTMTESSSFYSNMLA
The test is described as follows: radioligand competition, [125I]BH-SP on crude rat brain plasma membranes, room temperature, 75 min, filtration. In general terms: In a radioligand displacement assay an active substance lowers the binding of a labelled ligand.

Ends that are not written are not given here.

T1 sequence (P33535 whole entry): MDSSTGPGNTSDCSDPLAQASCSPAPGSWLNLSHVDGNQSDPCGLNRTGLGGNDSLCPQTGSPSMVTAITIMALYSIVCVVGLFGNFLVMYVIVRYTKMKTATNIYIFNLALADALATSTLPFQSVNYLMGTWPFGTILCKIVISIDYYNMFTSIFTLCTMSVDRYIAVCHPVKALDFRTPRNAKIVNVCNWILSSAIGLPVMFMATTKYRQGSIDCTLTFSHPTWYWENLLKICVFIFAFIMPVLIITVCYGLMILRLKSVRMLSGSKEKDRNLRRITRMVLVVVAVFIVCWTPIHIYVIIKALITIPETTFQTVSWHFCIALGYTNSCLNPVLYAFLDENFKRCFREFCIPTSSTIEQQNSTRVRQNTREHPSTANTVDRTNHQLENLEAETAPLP
Description for NK1 receptor (rat brain): (§1) For binding assays to opioid receptors, frozen rat brains (−80° C.) were homogenized in 40 volumes of standard Tris buffer (50 mM Tris HCl (pH 7.4), 0.2 mg/ml BSA, 2.5 mM EDTA, 40 μg/m bacitracin, 30 μg/ml bestatin and 5 mM MgCl₂) and centrifuged at 15,000×g for 20 minutes. 100 mM NaCl was added to the buffer, in order to remove endogenous ligands, and the centrifugation was repeated. After a wash with standard buffer, the membrane preparation was finally resuspended in 10 volumes of incubation buffer (standard buffer with 4 μg/ml leupeptin and 2 μg/ml chymostatin). […] The brain homogenates were used on the day of preparation.
After filtration, the radioactivity was determined on a gamma-counter.
Description for µ receptor (rat brain): as §1
After incubation the samples were filtered on a Brandell-Harvester using an appropriate GF/B filter soaked in 50 mM Tris HCl (pH 7A) and 0.5% PEI. Scintillation fluid was added to the filters in order to solubilize the membranes, and a beta-counter was used to quantify radioactivity.

B1: ESP7 (peptide)
peptide: YPFFGLM-NH2
notes: Chimera of endomorphin-2 at the N-terminus and SP(7-11) at the C-terminus; also called chimeric peptide ESP7; Tyr-Pro-Phe-Phe-Gly-Leu-Met-NH2
As to B1, the Kd (as a rule, the concentration at which binding is half-saturated) with µ receptor (rat brain) is ~300 nM; with NK1 receptor (rat brain), ~200 nM.
